Results taken from patent EP2506881B1.

Columns and labels:
Trop-2 (human) [1] = biological target: Trop-2 (human) (UniProt P09758); assay: ELISA on Trop-2-expressing cell lines PC-3 and Calu-3
Trop-2 (human) [2] = biological target: Trop-2 (human) (UniProt P09758); assay: cell-based or functional assay
Trop-2 (human) [3] = biological target: Trop-2 (human) (UniProt P09758); assay: ELISA on Trop-2-expressing cell lines PC-3 and Calu-3, apparent KD

Chain of UniProt P09758 (P09758 27-323): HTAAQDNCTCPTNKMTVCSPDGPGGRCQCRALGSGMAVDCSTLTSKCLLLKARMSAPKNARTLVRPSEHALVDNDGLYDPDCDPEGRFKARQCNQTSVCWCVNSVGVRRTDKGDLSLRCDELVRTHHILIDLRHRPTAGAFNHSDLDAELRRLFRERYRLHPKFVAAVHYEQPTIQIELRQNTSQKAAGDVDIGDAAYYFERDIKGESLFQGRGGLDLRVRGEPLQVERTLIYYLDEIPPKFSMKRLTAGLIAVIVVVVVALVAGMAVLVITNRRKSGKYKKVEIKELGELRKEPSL

**Q.** “2L-Rap(Q)-hRS7 (from UniProt P22069 1-104)” was tested. Which fold of apparent KD against hRS7 (Trop-2 (human) [1]) did it give?
**A.** 2 fold

**Q.** And the EC50, MTS cell proliferation assay, Calu-3 cells (Trop-2 (human) [2])?
**A.** 8.5 nM

**Q.** What about the EC50, MTS cell proliferation assay, MDA-MB-468 cells (Trop-2 (human) [2]) of the same molecule?
**A.** 3.8 nM

**Q.** And the EC50, MTS cell proliferation assay, ME-180 cells (Trop-2 (human) [2])?
**A.** 1.5 nM

**Q.** What about the EC50, MTS cell proliferation assay, T-47D cells (Trop-2 (human) [2]) of the same molecule?
**A.** 2 nM

**Q.** What about the Kd (Trop-2 (human) [3]) of the same molecule?
**A.** 0.28 nM

B1: humanized RS7 anti-Trop-2 antibody (hRS7 IgG) (antibody, INN chains, looked up, V domains shown)
VH: QVQLQQSGSELKKPGASVKVSCKASGYTFTNYGMNWVKQAPGQGLKWMGWINTYTGEPTYTDDFKGRFAFSLDTSVSTAYLQISSLKADDTAVYFCARGGFGSSYWYFDVWGQGSLVTVSS
VL: DIQLTQSPSSLSASVGDRVSITCKASQDVSIAVAWYQQKPGKAPKLLIYSASYRYTGVPDRFSGSGSGTDFTLTISSLQPEDFAVYYCQQHYITPLTFGAGTKVEIK
modifications: IgG
**Q.** Which Kd (Trop-2 (human) [3]) does the source give for B1 here?
**A.** 0.14 nM
